Reference: US7799901B2, “Modulators of the function of FAS receptors and other proteins” (Yeda Research and Development Co. Ltd., priority 1995, dated 2010)
Entries after “also recorded” stand apart in the source; their conditions may differ.

Tests used:
[1] = test system: human embryonic kidney 293-EBNA cells; experiment: Cell death on overexpression of MACH isoforms in 293-EBNA cells; format: cell-based; details: β-galactosidase-expressing cells with apoptopic morphology, 20 h after transfection
Description: (§1) To explore the involvement of MACH in cell-death induction, the effect of overexpression of various MACH isoforms on cell viability was examined. The test was performed by transfecting MACH expression vectors together with a β-galactosidase expression vector as a transfection marker into human embryonic kidney 293-EBNA cells and breast carcinoma MCF7 cells.
(§2) In brief, 293-EBNA cells, MCF7 human breast carcinoma cells and HeLa HtTA-1 cells were grown in Dulbecco's modified Eagle's minimal essential medium supplemented with 10% fetal calf serum, nonessential amino acids, 100 U/ml penicillin and 100 μg/ml streptomycin. Cell tissue culture dishes (5×10^5 293-EBNA cells, 3×10^5 s MCF7 cells or 3×10^5 HeLa cells in 6-cm dishes) were transiently transfected, using the calcium phosphate precipitation method, with the cDNAs of the indicated proteins together with the β-galactosidase expression vector. In the experiments presented in FIGS. 14A-D and 15, each dish was transfected with 3.5 μg of the indicated MACH construct and 1.5 μg of pSV-β-gal. In the experiments presented in FIGS. 16A-D and 17-19, each dish was transfected with 2.5 μg of the indicated MACH or MORT1 construct (or, as control, empty vector) and 1.5 μg of pSV-β-gal. The cells were rinsed 6 to 10 h after transfection. The 293-EBNA and MCF7 cells were incubated for a further 18 h without additional treatment. The HeLa cells were incubated for 26 h after transfection and-then for 5 h in the presence of either anti-Fas.APO1 antibody (CH11, 0.5 μg/ml) or TNF (100 ng/ml), together with cycloheximide (10 μg/ml). The extent of cell death at the end of the incubation periods was assessed by determination of β-galactosidase expression, as described by Kumar et al, 1994.
(§3) In particular, FIGS. 14A-D show the morphology of human embryonic kidney 293-EBNA cells transiently expressing the indicated MACH isoforms. The arrows (FIG. 14B) point to apoptopic cells. Photographs were taken 26 h after transfection. […] Data are from three independent experiments with the 293-EBNA cells and two independent experiments with the MCF7 cells.

[2] = test system: breast carcinoma MCF7 cells; experiment: Cell death on overexpression of MACH isoforms in MCF7 cells; format: cell-based, human; details: β-galactosidase-expressing cells with apoptopic morphology, 20 h after transfection
Description: as §1, §2, §3

HeLa cells = experiment: Cell death on overexpression of MACH isoforms in HeLa cells; format: cell-based; details: FIG. 19
Description: as §2
To examine the involvement of the CED3/ICE homology region within the MACHα isoforms in their apoptopic effects, cells were transfected with the expression vector for the MACHβ1 isoform, which lacks the CED3/ICE homology region, as well as with expression vectors for MACHα3, which lacks an N-terminal part of the region, and with expression vectors for MACHα1 (C360S) and for a C-terminally truncated mutant of MACHα1 (MACHα1 (1-415)), which lacks one of the residues believed to be critical for CED3/ICE protease function (corresponding to Ser347 in ICE). […]

[3] = test system: Fas/APO1 cytotoxicity (p55-Fas chimera) in 293-EBNA cells; format: cell-based, human; details: co-transfection
Description: as §2, with “The HeLa cells were incubated for 26 h after transfection and-then for 5 h in the presence of either anti-Fas.APO1 antibody (CH11, 0.5 μg/ml) or TNF (100 ng/ml), together with cycloheximide (10 μg/ml).” left out, “1994. […]” for “1994.”
(§4) In particular, FIGS. 16A-D show morphology of 293-EBNA cells in which cell death was induced by transient expression of a chimera comprised of the extracellular domain of the p55-R (amino acids 1-168) fused to the transmembrane and intracellular domains of Fas/APO1 (amino acids 153-319) (p55-Fas chimera) (FIGS. 16A and 16B), or by expression of the p55-R (FIGS. 16C and 16D), and of cells that were protected from these cytotoxic effects by their simultaneous transfection with MACHα1 (C360S) (FIGS. 16B and 16D). […] FIG. 17 illustrates the quantification of death induced in 293-EBNA cells by their transfection with p55-Fas chimera or with p55-R, together with an empty vector, a MORT1 deletion mutant lacking the MACH-binding region (MORT1 (92-208)), or MACHα molecules containing a nonfunctional CED3/ICE region. […] Data are from at least two independent experiments and are expressed as in FIGS. 14A-F and 15.

[4] = test system: p55-R-induced cytotoxicity in 293-EBNA cells; experiment: Death of 293-EBNA cells induced by over-expression of p55-R; format: cell-based, human; details: co-transfection
Description: as §2, with “The HeLa cells were incubated for 26 h after transfection and-then for 5 h in the presence of either anti-Fas.APO1 antibody (CH11, 0.5 μg/ml) or TNF (100 ng/ml), together with cycloheximide (10 μg/ml).” left out, “1994. […]” for “1994.”
as §4

[5] = test system: Fas/APO1-induced death of HeLa cells; experiment: Death of HeLa cells expressing Fas/APO1 induced by anti-Fas/APO1 antibody and cycloheximide; format: cell-based, human; details: HeLa cells transiently expressing Fas/APO1; CH11 0.5 μg/ml, cycloheximide 10 μg/ml
Description: as §2
The HeLa cells were made responsive to Fas/APO1 by transient expression of this receptor. […] These protective effects indicate that MACHα is a necessary component of both the Fas/APO1- and the p55-R-induced signaling cascades for cell death.
In particular, FIGS. 16A-D show morphology of 293-EBNA cells in which cell death was induced by transient expression of a chimera comprised of the extracellular domain of the p55-R (amino acids 1-168) fused to the transmembrane and intracellular domains of Fas/APO1 (amino acids 153-319) (p55-Fas chimera) (FIGS. 16A and 16B), or by expression of the p55-R (FIGS. 16C and 16D), and of cells that were protected from these cytotoxic effects by their simultaneous transfection with MACHα1 (C360S) (FIGS. 16B and 16D). Photographs were taken 26 h after transfection. FIG. 17 illustrates the quantification of death induced in 293-EBNA cells by their transfection with p55-Fas chimera or with p55-R, together with an empty vector, a MORT1 deletion mutant lacking the MACH-binding region (MORT1 (92-208)), or MACHα molecules containing a nonfunctional CED3/ICE region. […] Data are from at least two independent experiments and are expressed as in FIGS. 14A-F and 15.

[6] = test system: TNF-induced death of HeLa cells; experiment: Death of HeLa cells induced by TNF and cycloheximide; format: cell-based, human; details: TNF 100 ng/ml, cycloheximide 10 μg/ml
Description: as §2, with “1994. […]” for “1994.”

B1: MACHα3: MACH isoform, cDNA SEQ ID NO: 19, amino acid SEQ ID NO: 20; lacks an N-terminal part of the CED3/ICE region (protein)
chain: KCKLDDDMNLLDIFIEMEKRVILGEGKLDILKRVCAQINKSLLKIINDYEEFSKGALTTTFEELHFEIKPHDDCTVEQIYEILKIYQLMDHSNMDCFICCILSHGDKGIIYGTDGQEAPIYELTSQFTGLKCPSLAGKPKVFFIQACQGDNYQKGIPVETDSEEQPYLEMDLSSPQTRYIPDEADFLLGMATVNNCVSYRNPAEGTWYIQSLCQSLRERCPRGDDILTILTEVNYEVSNKDDKKNMGKQMPQPTFTLRKKLVFPSD
cell death of transfected 293-EBNA cells [1]: No death | cell death of transfected MCF7 cells [2]: No death | cytotoxicity in transfected HeLa cells (HeLa cells): somewhat cytotoxic | protection against Fas/APO1 cytotoxicity (p55-Fas chimera) [3]: effective protection | protection against p55-R-induced cytotoxicity [4]: effective protection | protection against death induced by anti-Fas/APO1 antibody and cycloheximide [5]: effective protection; also recorded: prevention | protection against death induced by TNF and cycloheximide [6]: effective protection
